According to article PMC12785155, “Phytochrome B stabilizes the KNOX transcription factor BP/KNAT1 to promote light-initiated seed germination in Arabidopsis thaliana”:

How the values were obtained:
[1] = molecular target: T1, BP/KNAT1 (B…US) (Arabidopsis thaliana, UniProt P46639 1-398); test: competition; excess unlabeled mutant vs biotin-labeled NCED9 probe; did not effectively reduce binding; LightShift Chemiluminescent EMSA kit; 0.5 ug BP-His with biotin-labeled probe, 20 min at room temperature, 6% polyacrylamide gel; buffer, salt and pH not stated; conditions: protein: recombinant; tags: His (pET32a, per Methods); Results text says BP-MBP; blunt
T1 sequence: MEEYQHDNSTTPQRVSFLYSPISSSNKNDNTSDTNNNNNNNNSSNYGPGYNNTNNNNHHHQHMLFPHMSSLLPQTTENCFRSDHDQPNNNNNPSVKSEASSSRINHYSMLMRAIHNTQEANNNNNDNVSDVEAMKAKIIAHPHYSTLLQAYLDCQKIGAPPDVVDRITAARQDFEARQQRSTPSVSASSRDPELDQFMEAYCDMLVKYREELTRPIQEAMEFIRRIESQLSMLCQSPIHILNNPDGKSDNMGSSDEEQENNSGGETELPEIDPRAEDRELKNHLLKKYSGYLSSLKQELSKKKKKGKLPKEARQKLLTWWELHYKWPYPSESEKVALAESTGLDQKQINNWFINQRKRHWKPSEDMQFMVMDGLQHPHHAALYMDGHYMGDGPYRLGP

[2] = molecular target: T1, BP/KNAT1 (B…US); test: EMSA; excess unlabeled probe reduced binding; LightShift Chemiluminescent EMSA kit; 0.5 ug BP-His with biotin-labeled probe, 20 min at room temperature, 6% polyacrylamide gel; buffer, salt and pH not stated; conditions: protein: recombinant; tags: His (pET32a, per Methods); Results text says BP-MBP; label: biotin (both strands, per oligo names); blunt
[3] = molecular target: T1, BP/KNAT1 (B…US); test: competition; excess unlabeled mutant vs biotin-labeled NCED6 probe; did not effectively reduce binding; LightShift Chemiluminescent EMSA kit; 0.5 ug BP-His with biotin-labeled probe, 20 min at room temperature, 6% polyacrylamide gel; buffer, salt and pH not stated; conditions: protein: recombinant; tags: His (pET32a, per Methods); Results text says BP-MBP; blunt

Row | Binder | binding result [2] | also measured
1 | NCED9-M mutant competitor (dsDNA) DNA 1: CATTACACTTTTTTAAAAAAAATGGAATGCAAAAAGTTTGGGCAC DNA 2: GTGCCCAAACTTTTTGCATTCCATTTTTTTTAAAAAAGTGTAATG |  | binding result [1]: no binding
2 | NCED6 probe (dsDNA) DNA 1: TAGCCGGACATCATTTATTTGACGGTGACGGAATGATTCACGCCGTTA DNA 2: TAACGGCGTGAATCATTCCGTCACCGTCAAATAAATGATGTCCGGCTA | binds | 
3 | NCED6-M mutant competitor (dsDNA) DNA 1: TAGCCGGACATCATTTATTAAAAGGAAAAGGAATGATTCACGCCGTTA DNA 2: TAACGGCGTGAATCATTCCTTTTCCTTTTAATAAATGATGTCCGGCTA |  | binding result [3]: no binding
4 | NCED9 probe (dsDNA) DNA 1: CATTACACTTTTTTAAAATGACTGGAATGCATGACGTTTGGGCAC DNA 2: GTGCCCAAACGTCATGCATTCCAGTCATTTTAAAAAAGTGTAATG | binds | 
